This is an account of results in publication PMC11404569, “ECT2 peptide sequences outside the YTH domain regulate its m6A-RNA binding”.

Data set [1] concerns the target T1, ECT2-303 (Arabidopsis thaliana, UniProt Q9LJE5 303-667).
T1 sequence: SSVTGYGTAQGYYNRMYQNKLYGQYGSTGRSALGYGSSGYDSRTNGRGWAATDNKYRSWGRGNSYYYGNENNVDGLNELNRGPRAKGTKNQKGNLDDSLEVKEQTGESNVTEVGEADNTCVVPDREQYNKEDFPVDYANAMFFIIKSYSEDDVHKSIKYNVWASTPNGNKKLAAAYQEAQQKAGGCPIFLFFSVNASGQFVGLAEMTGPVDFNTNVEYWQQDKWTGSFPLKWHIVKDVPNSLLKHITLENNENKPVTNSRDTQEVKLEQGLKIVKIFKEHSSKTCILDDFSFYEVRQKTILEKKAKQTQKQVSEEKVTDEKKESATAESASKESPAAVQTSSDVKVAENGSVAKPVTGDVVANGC
Briefly: EMSA; up to 500 nM; EMSA: 10 nM FAM-RNA; binding buffer 10 mM HEPES pH 8.0, 50 mM KCl, 1 mM EDTA, 0.05% Triton X-100, 5% glycerol, 10 µg/mL salmon DNA, 1 mM DTT, 40 U/mL RNasin; 20 min on ice; native 8% acrylamide TBE gel at 4°C. Conditions: protein: recombinant; tags: N-terminal His-SUMO; label: 5' FAM.

A further data set concerns the target T2, ECT2-376 (Arabidopsis thaliana, UniProt Q9LJE5 376-667).
T2 sequence: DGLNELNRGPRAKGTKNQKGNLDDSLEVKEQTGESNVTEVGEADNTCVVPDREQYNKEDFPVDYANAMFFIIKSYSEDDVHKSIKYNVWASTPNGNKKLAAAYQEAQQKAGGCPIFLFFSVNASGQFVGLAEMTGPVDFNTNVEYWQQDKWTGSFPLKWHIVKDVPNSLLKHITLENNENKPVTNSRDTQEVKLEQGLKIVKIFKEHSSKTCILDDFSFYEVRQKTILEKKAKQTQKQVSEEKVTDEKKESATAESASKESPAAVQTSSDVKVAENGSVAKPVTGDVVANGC
Nature of the data set: EMSA; no stable complex; EMSA: 10 nM FAM-RNA; binding buffer 10 mM HEPES pH 8.0, 50 mM KCl, 1 mM EDTA, 0.05% Triton X-100, 5% glycerol, 10 µg/mL salmon DNA, 1 mM DTT, 40 U/mL RNasin; 20 min on ice; native 8% acrylamide TBE gel at 4°C. The settings on record: protein: recombinant; tags: N-terminal His-SUMO; label: 5' FAM.

For a further data set, the target named is T3, ECT2-424 (His-SUMO) (Arabidopsis thaliana, UniProt Q9LJE5 424-610).
T3 sequence: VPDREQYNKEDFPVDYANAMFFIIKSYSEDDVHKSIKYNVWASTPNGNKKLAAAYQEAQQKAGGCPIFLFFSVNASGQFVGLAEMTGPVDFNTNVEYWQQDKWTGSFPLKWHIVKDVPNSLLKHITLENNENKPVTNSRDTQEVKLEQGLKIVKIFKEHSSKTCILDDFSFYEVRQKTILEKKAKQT
The description is as above. Conditions: protein: recombinant; tags: N-terminal His-SUMO; label: 5' FAM.

For data set [2], the target named is T1, ECT2-303. Nature of the data set: EMSA; apparent Kd from free probe; EMSA: 10 nM FAM-RNA; binding buffer 10 mM HEPES pH 8.0, 50 mM KCl, 1 mM EDTA, 0.05% Triton X-100, 5% glycerol, 10 µg/mL salmon DNA, 1 mM DTT, 40 U/mL RNasin; 20 min on ice; native 8% acrylamide TBE gel at 4°C. The settings on record: protein: recombinant; tags: N-terminal His-SUMO; label: 5' FAM.

The next data set deals with T4, ECT2-Fl (untagged) (Arabidopsis thaliana, UniProt Q9LJE5 1-667).
T4 sequence: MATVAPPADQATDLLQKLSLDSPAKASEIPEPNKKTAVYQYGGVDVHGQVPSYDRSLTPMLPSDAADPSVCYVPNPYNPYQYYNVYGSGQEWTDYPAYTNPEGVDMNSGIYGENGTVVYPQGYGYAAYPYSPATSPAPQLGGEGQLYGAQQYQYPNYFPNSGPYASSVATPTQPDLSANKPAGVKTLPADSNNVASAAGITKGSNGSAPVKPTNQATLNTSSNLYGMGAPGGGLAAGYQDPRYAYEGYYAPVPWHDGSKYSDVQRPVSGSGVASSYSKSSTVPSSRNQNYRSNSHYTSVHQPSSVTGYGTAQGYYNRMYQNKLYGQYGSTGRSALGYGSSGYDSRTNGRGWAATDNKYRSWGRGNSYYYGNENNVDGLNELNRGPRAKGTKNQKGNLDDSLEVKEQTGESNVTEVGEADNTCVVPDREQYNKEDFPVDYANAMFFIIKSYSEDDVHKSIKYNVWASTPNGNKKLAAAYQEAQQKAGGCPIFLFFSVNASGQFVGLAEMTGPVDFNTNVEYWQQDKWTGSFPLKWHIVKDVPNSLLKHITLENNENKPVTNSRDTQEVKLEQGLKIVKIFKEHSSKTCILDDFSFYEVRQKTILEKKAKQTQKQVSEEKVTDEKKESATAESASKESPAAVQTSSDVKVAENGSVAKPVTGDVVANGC
Nature of the data set: EMSA; up to 500 nM; EMSA: 10 nM FAM-RNA; binding buffer 10 mM HEPES pH 8.0, 50 mM KCl, 1 mM EDTA, 0.05% Triton X-100, 5% glycerol, 10 µg/mL salmon DNA, 1 mM DTT, 40 U/mL RNasin; 20 min on ice; native 8% acrylamide TBE gel at 4°C. Conditions: protein: recombinant; tags: none (His-SUMO cleaved by TEV); label: 5' FAM.

Data set [3] addresses T5, ECT2-108 (Arabidopsis thaliana, UniProt Q9LJE5 108-667).
T5 sequence: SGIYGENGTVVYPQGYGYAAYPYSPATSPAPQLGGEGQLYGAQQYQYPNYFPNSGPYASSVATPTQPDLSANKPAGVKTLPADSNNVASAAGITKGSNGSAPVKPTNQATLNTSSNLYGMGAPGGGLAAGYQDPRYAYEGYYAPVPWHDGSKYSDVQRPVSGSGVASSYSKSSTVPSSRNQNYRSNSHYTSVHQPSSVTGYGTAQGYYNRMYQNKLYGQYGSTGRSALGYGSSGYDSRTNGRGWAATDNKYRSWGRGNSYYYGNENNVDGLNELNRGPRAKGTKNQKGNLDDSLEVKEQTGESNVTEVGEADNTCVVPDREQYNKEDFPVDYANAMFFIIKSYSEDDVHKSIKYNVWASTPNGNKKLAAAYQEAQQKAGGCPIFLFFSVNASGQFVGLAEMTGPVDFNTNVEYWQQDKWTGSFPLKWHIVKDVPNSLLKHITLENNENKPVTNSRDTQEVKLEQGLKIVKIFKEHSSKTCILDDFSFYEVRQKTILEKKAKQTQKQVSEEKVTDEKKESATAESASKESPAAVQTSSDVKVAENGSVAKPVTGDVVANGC
The data set is described as above. The settings on record: protein: recombinant; tags: N-terminal His-SUMO; label: 5' FAM.

In data set [4] the target is YTHDC1 extended YTH (hDC1) (Homo sapiens, UniProt Q96MU7 345-507). Briefly: EMSA; up to 400 nM; EMSA: 10 nM FAM-RNA; binding buffer 10 mM HEPES pH 8.0, 50 mM KCl, 1 mM EDTA, 0.05% Triton X-100, 5% glycerol, 10 µg/mL salmon DNA, 1 mM DTT, 40 U/mL RNasin; 20.
A further data set has as its target T6, ECT2-444 (Arabidopsis thaliana, UniProt Q9LJE5 444-580).
T6 sequence: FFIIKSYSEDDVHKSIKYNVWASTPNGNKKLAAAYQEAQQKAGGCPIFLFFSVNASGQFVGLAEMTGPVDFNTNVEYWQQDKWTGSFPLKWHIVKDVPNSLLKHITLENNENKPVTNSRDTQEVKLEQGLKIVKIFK
Nature of the data set: EMSA; up to 800 nM; EMSA: 10 nM FAM-RNA; binding buffer 10 mM HEPES pH 8.0, 50 mM KCl, 1 mM EDTA, 0.05% Triton X-100, 5% glycerol, 10 µg/mL salmon DNA, 1 mM DTT, 40 U/mL RNasin; 20 min on ice; native 8% acrylamide TBE gel at 4°C. Conditions: protein: recombinant; tags: N-terminal His-SUMO; label: 5' FAM.

Another data set concerns the target T7, ECT2-204 (Arabidopsis thaliana, UniProt Q9LJE5 204-667).
T7 sequence: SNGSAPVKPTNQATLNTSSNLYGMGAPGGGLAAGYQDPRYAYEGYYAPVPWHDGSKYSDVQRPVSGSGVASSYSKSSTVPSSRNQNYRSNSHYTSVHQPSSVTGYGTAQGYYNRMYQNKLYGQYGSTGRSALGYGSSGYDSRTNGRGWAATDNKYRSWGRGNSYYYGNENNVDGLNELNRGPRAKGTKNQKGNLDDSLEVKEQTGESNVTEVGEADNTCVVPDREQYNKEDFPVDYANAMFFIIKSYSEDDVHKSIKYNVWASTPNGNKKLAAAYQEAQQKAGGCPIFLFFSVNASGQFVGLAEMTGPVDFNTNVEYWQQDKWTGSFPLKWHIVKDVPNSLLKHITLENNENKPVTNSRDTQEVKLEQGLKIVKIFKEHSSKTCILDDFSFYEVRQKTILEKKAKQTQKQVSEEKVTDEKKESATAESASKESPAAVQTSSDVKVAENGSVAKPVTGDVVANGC
Briefly: EMSA; EMSA: 10 nM FAM-RNA; binding buffer 10 mM HEPES pH 8.0, 50 mM KCl, 1 mM EDTA, 0.05% Triton X-100, 5% glycerol, 10 µg/mL salmon DNA, 1 mM DTT, 40 U/mL RNasin; 20 min on ice; native 8% acrylamide TBE gel at 4°C. Conditions: protein: recombinant; tags: N-terminal His-SUMO; label: 5' FAM.

Data set [5] concerns the target T5, ECT2-108. Nature of the data set: EMSA; affinity similar to ECT2-204; EMSA: 10 nM FAM-RNA; binding buffer 10 mM HEPES pH 8.0, 50 mM KCl, 1 mM EDTA, 0.05% Triton X-100, 5% glycerol, 10 µg/mL salmon DNA, 1 mM DTT, 40 U/mL RNasin; 20 min on ice; native 8% acrylamide TBE gel at 4°C. The settings on record: protein: recombinant; tags: N-terminal His-SUMO; label: 5' FAM.

B1: Probe III (A) (ssRNA)
RNA: AAGGGCCGAACAACAGCAAAAAGGACUGCAAAAGGGGCAAGA
modifications: thiol-protected 3' bases (*G*A)
For the molecule B1, the binding result with ECT2-303 [1], with ECT2-376 and with ECT2-424 (His-SUMO) was “no binding” in each case.

B2: Probe III m6A (ssRNA)
RNA: AAGGGCCGAACAACAGCAAAAAGGACUGCAAAAGGGGCAAGA
modifications: m6A at position 25; thiol-protected 3' bases (*G*A)
Take B2: the Kd in the data set with ECT2-303 [2] was 39 ± 2 nM.

B3: Probe IV (A) (ssRNA)
RNA: AUGUGUCUUUCAUGUACUAAAAGGACUGCUCUUGUGUCUUGU
modifications: thiol-protected 3' bases (*G*U)
For B3, the binding result with ECT2-376 and with ECT2-424 (His-SUMO) was “no binding” in each case.

B4: Probe IV m6A (ssRNA)
RNA: AUGUGUCUUUCAUGUACUAAAAGGACUGCUCUUGUGUCUUGU
modifications: m6A at position 25; thiol-protected 3' bases (*G*U)
For B4, the Kd with ECT2-303 [2] was 85 ± 5 nM.

B5: Probe I (A) (ssRNA)
RNA: AUGGGCCGUUCAUCUGCUAAAAGGACUGCUUUUGGGGCUUGU
modifications: thiol-protected 3' bases (*G*U)
Take B5: the binding result with ECT2-Fl (untagged), with ECT2-108 [3] and in the data set with ECT2-303 [1] was “no binding” each time.

B6: Probe I m6A (ssRNA)
RNA: AUGGGCCGUUCAUCUGCUAAAAGGACUGCUUUUGGGGCUUGU
modifications: m6A at position 25; thiol-protected 3' bases (*G*U)
Turning to B6, the binding result in data set [4] is reported as “binds”; in the data set with ECT2-444 it was “no binding”. In addition, the binding signal is approximately 5 fold Kd vs ECT2-303 with ECT2-204 and approximately 3 fold Kd vs ECT2-Fl with ECT2-108 [5]. Besides, the Kd with ECT2-303 [2] was found to be 55 ± 7 nM.
